Six molecules from patent US20230028110A1 (ADAPTATE BIOTHERAPEUTICS, published 2023) can be followed below.

Assay [1] concerns the target T1, OX40 on activated CD4 T-cells.
T1 construct: also called OX40+ CD4 T-cells
T1 chain: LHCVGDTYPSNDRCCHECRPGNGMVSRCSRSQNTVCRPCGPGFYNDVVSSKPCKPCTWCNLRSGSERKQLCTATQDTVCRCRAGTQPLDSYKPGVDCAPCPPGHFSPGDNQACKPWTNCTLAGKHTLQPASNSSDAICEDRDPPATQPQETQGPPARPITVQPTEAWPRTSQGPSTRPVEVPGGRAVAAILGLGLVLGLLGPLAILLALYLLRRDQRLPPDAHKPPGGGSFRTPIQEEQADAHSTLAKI
Kind of assay: flow cytometry on anti-CD3/anti-CD28-activated CD4 T-cells, anti-human IgG secondary antibody, % cells bound IgG. For orientation: Flow cytometry measures light scatter and fluorescence of single cells or particles in a stream.
Method: Initially CD4+ T-cells were negatively selected by magnetic sorting from PBMC buffy coats extracted from whole blood. Following activation by anti-CD3/anti-CD28 antibodies conjugated to Dynabeads (Invitrogen), cell surface expression of OX40 was elevated on CD4 T-cells. […] After washing, cells were incubated for a further 15 minutes with anti-human IgG secondary antibodies before washing and fixing. The amount of antibody bound to each cell type was determined by flow cytometry.

The target in assay [2] is T2, OX40 on OX40+ NFAT Jurkat cells (human, UniProt P43489).
T2 sequence (receptor, looked up): T1 chain
The experiment in a line: cell-based or functional assay.

Assay [3] addresses T3, Vδ1 chain of the γδ TCR on human Vδ1 γδ T cells (human).
T3 construct: whole, on cells; also called cell surface Vδ1 TCR; Vδ1-positive γδ T cells
The experiment in a line: flow cytometry on Vδ1 γδ T-cells, anti-human IgG secondary antibody, % cells bound IgG.

Assay [4] addresses T4, Recombinant human OX40 (human, UniProt P43489 29-216, limits assumed).
T4 construct: also called CD134
T4 sequence (looked up): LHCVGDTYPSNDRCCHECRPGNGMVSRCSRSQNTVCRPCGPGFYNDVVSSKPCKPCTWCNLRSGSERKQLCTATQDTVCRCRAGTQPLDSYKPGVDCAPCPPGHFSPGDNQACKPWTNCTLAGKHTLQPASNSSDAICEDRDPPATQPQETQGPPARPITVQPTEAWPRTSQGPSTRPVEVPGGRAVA
Kind of assay: SPR (Reichert 4SPR), antibody on Protein A chip, antigen flown over.
Method: Recombinant human Vδ1 heterodimer or human OX40 was flown over the cell at a top concentration of 100 nM.

Assay [5] addresses T5, L1 (DV1-GV4), soluble human Vδ1/Vγ4 γδ TCR heterodimer in leucine zipper format (human).
T5 construct: Biotinylated in the DELFIA ranking; also called Antigen L1 (TRDV1/TRGV4); human DV1-GV4; not shown: gamma chain: Vγ4 (TRGV4) domain on a TCR constant region, leucine zipper, histidine tag
The description is as above.

Assay [6] deals with T3, Vδ1 chain of the γδ TCR on human Vδ1 γδ …. Kind of assay: flow cytometry on Vδ1 γδ T-cells, anti-human IgG secondary antibody, % IgG bound cells.
Method: (§1) After washing, cells were incubated for a further 15 minutes with anti-human IgG secondary antibodies before washing and fixing. The amount of antibody bound to each cell type was determined by flow cytometry.
Assay [7] concerns the target T5, L1 (DV1-GV4), soluble human Vδ1/Vγ4 γδ …. Kind of assay: SPR (Reichert 4SPR), antibody on Protein A chip, antigen flown over. The source holds these as a separate data set.
Method: (§2) Recombinant human Vδ1 heterodimer or human MSLN was flown over the cell at a top concentration of 100 nM with the following parameters: 180 s association, 480 s dissociation, flowrate 25 μL/min, running buffer PBS+0.05% Tween 20. All experiments were performed at room temperature.
The target of assay [8] is T6, Recombinant human MSLN (human, UniProt Q13421 296-580, limits assumed).
T6 construct: also called mesothelin
The experiment in a line: SPR (Reichert 4SPR), antibody on Protein A chip, antigen flown over; column head prints FAPα.
Method: as §2

The target of assay [9] is T5, L1 (DV1-GV4), soluble human Vδ1/Vγ4 γδ …. Kind of assay: SPR (Reichert 4SPR), antibody on Protein A chip, antigen flown over. This is another data set of the same source.
Method: (§3) Recombinant human Vδ1 heterodimer or human FAPα was flown over the cell at a concentration of 100 nM with the following parameters: 180 s association, 480 s dissociation, flowrate 25 μL/min, running buffer PBS+0.05% Tween 20. All experiments were performed at room temperature.
The target in assay [10] is Recombinant human FAPα (human, UniProt Q12884 26-760). The assay is described as above.
Method: as §3
In assay [11] the target is T7, FAPα on FAPα+ fibroblasts (human, UniProt Q12884 1-760).
T7 construct: whole, on cells; also called FAPα+ target cells (BJ fibroblasts, human dermal fibroblasts)
Kind of assay: flow cytometry on BJ fibroblasts, anti-human Fc secondary antibody, % IgG bound cells.
Method: (§4) After washing, cells were incubated for a further 15 minutes with anti-human Fc secondary antibodies before washing and fixing. The amount of antibody bound to each cell type was determined by flow cytometry.

Assay [12] deals with T3, Vδ1 chain of the γδ TCR on human Vδ1 γδ …. The experiment in a line: flow cytometry on Vδ1 γδ T-cells, anti-human Fc secondary antibody, % IgG bound cells.
Method: as §4
The target of assay [13] is T8, Recombinant human PD-1 (human, UniProt Q15116 25-167, limits assumed).
T8 construct: also called programmed cell death protein 1
Kind of assay: SPR (Reichert 4SPR), antibody on Protein A chip, antigen flown over; column head prints TIGIT.
Method: (§5) Recombinant human Vδ1 heterodimer or human PD-1 was flown over the cell at a top concentration of 100 nM.

The target of assay [14] is PD-1 on PD-1+ NFAT Jurkat cells (Promega, JA2191) (UniProt Q15116 25-288, limits assumed). The experiment in a line: cell-based or functional assay.
Assay [15] has as its target T3, Vδ1 chain of the γδ TCR on human Vδ1 γδ …. The experiment in a line: flow cytometry on Vδ1 γδ T-cells, anti-human IgG secondary antibody, % cells bound IgG. This is another data set of the same source.
Method: as §1
The target of assay [16] is T5, L1 (DV1-GV4), soluble human Vδ1/Vγ4 γδ …. Kind of assay: SPR (Reichert 4SPR), antibody on Protein A chip, antigen flown over. This is another data set of the same source.
Method: as §5
Assay [17] has the same target. Kind of assay: DELFIA ELISA, 0.4 nM human TRDV1 antigen; heat map cell of the clone. On the technique in general: In an ELISA, binding on a coated surface is turned into a signal by an enzyme label.
For assay [18] the target is unchanged. The experiment in a line: SPR, captured IgG, human DV1-GV4 flown over. In general terms: In SPR one partner is held on a chip, and binding of the other changes the refractive index at the surface.
Assay [19] has as its target T9, Cyno DV1/GV77 antigen, recombinant cynomolgus Vδ1 heterodimer (cynomolgus monkey).
T9 construct: also called cyno TRDV1; Cyno DV1-77; not shown: delta CDR3/J, TCR constant region, zipper and tag; the whole gamma chain GV77
Kind of assay: DELFIA ELISA, cyno antigen; heat map cell of the clone.

Assay [20] concerns the target T9, Cyno DV1/GV77 antigen, recombinant …. The experiment in a line: SPR, captured IgG, cyno DV1-GV77 flown over.
The target of assay [21] is T5, L1 (DV1-GV4), soluble human Vδ1/Vγ4 γδ …. The experiment in a line: SPR (Reichert 4SPR), antibody on Protein A chip, Vδ1 heterodimer at 6.25-100 nM as analyte.
The target of assay [22] is T9, Cyno DV1/GV77 antigen, recombinant …. The description is as above.
Assay [23] concerns the target T5, L1 (DV1-GV4), soluble human Vδ1/Vγ4 γδ …. The experiment in a line: SPR (Reichert 4SPR), antibody on Protein A chip.
Assay [24] has as its target T9, Cyno DV1/GV77 antigen, recombinant …. The experiment in a line: SPR (Reichert 4SPR), antibody on Protein A chip.

Where a chain is given by its changes, count along the chain named. Numbers in names are those of the source.

T3 sequence (A0A1B0GX56 22-115, stated change not applied): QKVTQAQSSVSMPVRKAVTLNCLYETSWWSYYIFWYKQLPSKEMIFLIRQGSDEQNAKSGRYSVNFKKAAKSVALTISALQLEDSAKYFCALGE
T5 sequence (main, as listed by the source): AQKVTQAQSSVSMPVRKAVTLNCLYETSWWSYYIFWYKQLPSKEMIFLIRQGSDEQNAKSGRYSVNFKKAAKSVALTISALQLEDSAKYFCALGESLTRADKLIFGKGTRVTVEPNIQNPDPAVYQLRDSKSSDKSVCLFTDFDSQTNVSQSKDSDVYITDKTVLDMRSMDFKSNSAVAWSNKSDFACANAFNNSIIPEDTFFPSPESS
T9 sequence (delta, as listed by the source limits assumed): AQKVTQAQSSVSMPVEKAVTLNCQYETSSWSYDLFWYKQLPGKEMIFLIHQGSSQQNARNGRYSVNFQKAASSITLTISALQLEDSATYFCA
T8 sequence (Q15116 25-167 limits assumed): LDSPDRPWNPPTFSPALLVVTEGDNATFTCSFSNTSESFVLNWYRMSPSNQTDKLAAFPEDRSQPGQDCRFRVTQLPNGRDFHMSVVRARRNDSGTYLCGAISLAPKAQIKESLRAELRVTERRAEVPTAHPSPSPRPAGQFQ
Sequence of PD-1 on PD-1+ NFAT Jurkat cells (Promega, JA2191) (Q15116 25-288 limits assumed): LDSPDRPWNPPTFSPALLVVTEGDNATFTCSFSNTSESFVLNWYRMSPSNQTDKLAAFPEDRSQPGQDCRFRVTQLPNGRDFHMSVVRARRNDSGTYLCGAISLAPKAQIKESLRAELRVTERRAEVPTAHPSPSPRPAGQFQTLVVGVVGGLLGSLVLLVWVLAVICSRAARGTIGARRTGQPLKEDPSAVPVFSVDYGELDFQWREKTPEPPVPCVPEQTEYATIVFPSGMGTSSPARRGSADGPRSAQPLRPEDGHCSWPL
T6 sequence (Q13421 other isoform, or with tags, fused parts or gaps limits assumed): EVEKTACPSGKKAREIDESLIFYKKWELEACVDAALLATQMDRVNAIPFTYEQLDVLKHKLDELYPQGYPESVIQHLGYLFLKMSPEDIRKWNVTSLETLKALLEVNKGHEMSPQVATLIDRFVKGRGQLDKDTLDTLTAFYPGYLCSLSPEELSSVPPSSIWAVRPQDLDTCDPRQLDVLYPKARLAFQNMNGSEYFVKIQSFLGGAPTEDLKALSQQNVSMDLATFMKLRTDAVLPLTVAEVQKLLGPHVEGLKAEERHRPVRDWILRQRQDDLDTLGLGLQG

B1: Anti-Vδ1xanti-OX40 (ADT1-4-2xpogalizumab) bispecific antibody (bispecific antibody, human IgG1, kappa)
light: DIQMTQSPPALSASVGDRVTITCRASQDINDWLAWYQHKPGKAPKLLIYDASSLESGVPLRFSGSGSGTEFTLTISSLQPDDFATYYCQQKYSAPQVTFGQGTRLEIKRTVAAPSVFIFPPSDEQLKSGTASVVCLLNNFYPREAKVQWKVDNALQSGNSQESVTEQDSKDSTYSLSSTLTLSKADYEKHKVYACEVTHQGLSSPVTKSFNRGEC
heavy: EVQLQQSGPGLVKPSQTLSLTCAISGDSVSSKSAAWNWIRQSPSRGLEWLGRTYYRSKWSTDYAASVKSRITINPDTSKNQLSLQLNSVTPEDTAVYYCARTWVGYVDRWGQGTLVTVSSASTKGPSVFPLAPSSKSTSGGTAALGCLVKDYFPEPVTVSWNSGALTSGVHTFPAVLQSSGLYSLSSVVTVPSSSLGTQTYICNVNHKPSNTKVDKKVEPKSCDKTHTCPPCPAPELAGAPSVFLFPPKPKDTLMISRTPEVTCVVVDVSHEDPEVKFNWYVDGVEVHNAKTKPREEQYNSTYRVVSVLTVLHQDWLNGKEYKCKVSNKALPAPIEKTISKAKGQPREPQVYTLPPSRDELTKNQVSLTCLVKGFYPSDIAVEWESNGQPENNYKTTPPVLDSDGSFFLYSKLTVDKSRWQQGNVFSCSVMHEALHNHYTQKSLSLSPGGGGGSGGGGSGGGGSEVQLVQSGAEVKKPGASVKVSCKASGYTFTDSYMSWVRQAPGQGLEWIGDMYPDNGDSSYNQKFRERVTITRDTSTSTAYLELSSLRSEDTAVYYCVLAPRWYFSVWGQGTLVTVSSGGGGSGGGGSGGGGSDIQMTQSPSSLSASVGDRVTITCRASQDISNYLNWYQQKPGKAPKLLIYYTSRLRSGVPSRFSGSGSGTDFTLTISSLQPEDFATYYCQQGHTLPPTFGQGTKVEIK
notes: also called ADT1-4-2xOX40; Vδ1-OX40 bispecific antibody
Consider B1, for which the concentration giving a half-maximal response (EC50 (read off the curve)) was around 2 nM in [1] and around 0.3 nM in assay [3]. For the same molecule, the “EC50 (read off the curve), OX40+ NFAT Jurkat activation assay” value in assay [2] was around 20 nM. For the same molecule, the figures for the Kd in assay [4] and in assay [5] were 1.63 nM and 1.2 nM, respectively.

B2: Anti-Vδ1xMSLN (ADT1-4-2xMSLN) bispecific antibody (bispecific antibody, human IgG1, kappa)
light: B1 light
heavy: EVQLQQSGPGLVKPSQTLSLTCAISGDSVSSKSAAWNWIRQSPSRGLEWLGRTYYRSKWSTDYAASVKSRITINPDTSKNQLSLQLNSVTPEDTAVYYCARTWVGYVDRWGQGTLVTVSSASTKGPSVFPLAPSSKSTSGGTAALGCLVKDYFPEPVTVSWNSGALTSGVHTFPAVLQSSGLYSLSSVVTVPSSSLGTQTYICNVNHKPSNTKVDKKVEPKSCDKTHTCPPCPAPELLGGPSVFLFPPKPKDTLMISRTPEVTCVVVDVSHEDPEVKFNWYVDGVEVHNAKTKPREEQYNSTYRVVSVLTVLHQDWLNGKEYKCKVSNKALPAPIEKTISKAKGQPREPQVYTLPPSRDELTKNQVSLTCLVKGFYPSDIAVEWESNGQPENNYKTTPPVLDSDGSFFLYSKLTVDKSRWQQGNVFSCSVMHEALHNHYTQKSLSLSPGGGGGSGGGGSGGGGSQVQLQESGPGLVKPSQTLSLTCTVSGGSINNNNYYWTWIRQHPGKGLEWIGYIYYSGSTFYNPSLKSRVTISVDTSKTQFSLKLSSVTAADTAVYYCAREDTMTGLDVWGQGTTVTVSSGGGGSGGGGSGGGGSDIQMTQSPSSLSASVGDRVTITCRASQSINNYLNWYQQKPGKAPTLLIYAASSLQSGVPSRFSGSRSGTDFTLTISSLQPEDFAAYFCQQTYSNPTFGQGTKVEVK
notes: also called ADT1-4-2 × MSLN; MSLN-Vδ1 bispecific antibody
With B2, the “EC50 (read off the curve)” value in [6] was around 0.5 nM. Besides, the Kd in assay [7] turned out to be 0.026 nM; in assay [8] it was 0.87 nM.

B3: Anti-Vδ1xFAPα (ADT1-4-2x sibrotuzumab) bispecific antibody (bispecific antibody, human IgG1, kappa)
light: B1 light
heavy: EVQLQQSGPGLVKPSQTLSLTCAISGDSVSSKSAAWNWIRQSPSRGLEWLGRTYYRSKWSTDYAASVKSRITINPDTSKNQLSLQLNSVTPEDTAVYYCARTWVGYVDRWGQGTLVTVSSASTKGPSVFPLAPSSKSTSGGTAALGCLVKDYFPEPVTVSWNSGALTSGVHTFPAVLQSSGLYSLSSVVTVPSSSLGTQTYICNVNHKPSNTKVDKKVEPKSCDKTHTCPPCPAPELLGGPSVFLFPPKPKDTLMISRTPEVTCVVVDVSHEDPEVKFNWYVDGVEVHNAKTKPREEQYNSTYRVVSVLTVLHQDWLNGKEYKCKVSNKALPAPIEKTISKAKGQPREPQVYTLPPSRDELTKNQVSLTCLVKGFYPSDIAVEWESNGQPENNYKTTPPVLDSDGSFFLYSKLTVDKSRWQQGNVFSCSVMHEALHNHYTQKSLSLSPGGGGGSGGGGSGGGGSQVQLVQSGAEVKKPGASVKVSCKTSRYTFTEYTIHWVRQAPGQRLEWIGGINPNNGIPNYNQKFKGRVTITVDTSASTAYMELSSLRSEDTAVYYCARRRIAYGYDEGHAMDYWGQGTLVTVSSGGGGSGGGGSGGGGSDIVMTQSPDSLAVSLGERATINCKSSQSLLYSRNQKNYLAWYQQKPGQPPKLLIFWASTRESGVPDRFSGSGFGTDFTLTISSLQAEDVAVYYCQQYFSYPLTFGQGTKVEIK
notes: also called ADT1-4-2 × FAP alpha; Vδ1-FAPα bispecific antibody
In the case of B3, the Kd in assay [9] was found to be 0.26 nM; in [10], 1.4 nM. In addition, the half-maximal effective concentration (EC50 (read off the curve)) in assay [11] was around 1 nM; in assay [12], around 0.5 nM.

B4: Anti-Vδ1xAnti-PD-1 (ADT1-4-2xpembrolizumab) bispecific antibody (bispecific antibody, human IgG1, kappa)
light: EIVLTQSPATLSLSPGERATLSCRASKGVSTSGYSYLHWYQQKPGQAPRLLIYLASYLESGVPARFSGSGSGTDFTLTISSLEPEDFAVYYCQHSRDLPLTFGGGTKVEIKRTVAAPSVFIFPPSDEQLKSGTASVVCLLNNFYPREAKVQWKVDNALQSGNSQESVTEQDSKDSTYSLSSTLTLSKADYEKHKVYACEVTHQGLSSPVTKSFNRGEC
heavy: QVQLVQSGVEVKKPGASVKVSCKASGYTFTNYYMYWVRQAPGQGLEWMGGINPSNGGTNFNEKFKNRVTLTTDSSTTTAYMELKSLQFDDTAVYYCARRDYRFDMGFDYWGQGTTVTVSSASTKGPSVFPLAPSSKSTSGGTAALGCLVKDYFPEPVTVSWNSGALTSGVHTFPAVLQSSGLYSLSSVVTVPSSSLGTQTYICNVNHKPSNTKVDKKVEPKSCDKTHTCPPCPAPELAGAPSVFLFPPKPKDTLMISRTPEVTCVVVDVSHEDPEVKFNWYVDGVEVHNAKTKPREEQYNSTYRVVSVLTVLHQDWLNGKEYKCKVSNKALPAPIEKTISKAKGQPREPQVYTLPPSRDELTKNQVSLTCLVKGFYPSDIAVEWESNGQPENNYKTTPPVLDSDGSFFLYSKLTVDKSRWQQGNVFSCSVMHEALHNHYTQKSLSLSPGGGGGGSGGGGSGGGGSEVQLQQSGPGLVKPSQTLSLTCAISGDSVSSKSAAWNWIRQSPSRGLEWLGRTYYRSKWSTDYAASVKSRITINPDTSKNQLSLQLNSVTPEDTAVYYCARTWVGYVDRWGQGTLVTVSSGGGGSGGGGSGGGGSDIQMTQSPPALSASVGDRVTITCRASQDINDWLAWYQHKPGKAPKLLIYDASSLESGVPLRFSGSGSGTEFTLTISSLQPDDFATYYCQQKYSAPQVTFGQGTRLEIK
notes: also called PD-1xADT1-4-2; Vδ1-PD-1 bispecific antibody
Turning to B4, the results for the Kd in [13] and in assay [16] were 0.9 nM and 1.5 nM, respectively. Also, in assay [14], the “EC50 (read off the curve), PD-1/PD-L1 blockade reporter assay” value is around 1 nM. Moreover, the “EC50 (read off the curve)” value in assay [15] was around 0.7 nM.

B5: ADT1-4-8 (antibody, V domains shown)
VH: EVQLQQSGPGLVKPSQTLSLTCAISGDSVSSKSAAWNWIRQSPSRGLEWLGRTYYRSKWSTDYAASVKSRITINPDTSKNQLSLQLNSVTPEDTAVYYCARTWVGYADVWGQGTLVTVSS
VL: DIQMTQSPPALSASVGDRVTITCRASQDINDWLAWYQHKPGKAPKLLIYDASSLESGVPLRFSGSGSGTEFTLTISSLQPDDFATYYCQQKYSAPQVTFGQGTRLEIK
In the case of B5, the “ELISA signal (heat map)” value in assay [17] worked out at 42700; in assay [19] it was 139000. The equilibrium dissociation constant (Kd) in assay [18] was 0.541 nM; in [20] it was 15.1 nM.

B6: ADT1-4-2 (L74S) (antibody, V domains shown)
VH: B5 VH with A107V, V109R
VL: DIQMTQSPPALSASVGDRVTITCRASQDINDWLAWYQHKPGKAPKLLIYDASSLESGVPSRFSGSGSGTEFTLTISSLQPDDFATYYCQQKYSAPQVTFGQGTRLEIKR
notes: Captured on Protein A
In the case of B6, the dissociation constant Kd was 4 nM in assay [21] and 61 nM in assay [22]. Besides, the “fold reduction in affinity against ADT1-4-2” value in assay [23] is around 11 fold; in [24], around 23 fold.

Usually EC50 (read off the curve) stands for the concentration that produces a half-maximal response. Low values mean greater potency, high ones weaker potency. Broadly, the Kd is a measure of binding affinity in units of concentration.
